According to article PMC12088458:

How the values were obtained:
Experiment in all cases: BioID proximity labelling, biotin pull-down, mass spectrometry
Conditions in all cases: HEK293T, n = 3, over EV-BirA control, read off a plot
TRRAP = TRRAP (UniProt Q9Y4A5)
DDX3X = DDX3X (UniProt O00571)
SMARCA5 = SMARCA5 (UniProt O60264)
SMARCA4 = SMARCA4 (UniProt P51532)
β-catenin = β-catenin (UniProt P35222)
UniProt P35222, sequence (P35222 whole entry): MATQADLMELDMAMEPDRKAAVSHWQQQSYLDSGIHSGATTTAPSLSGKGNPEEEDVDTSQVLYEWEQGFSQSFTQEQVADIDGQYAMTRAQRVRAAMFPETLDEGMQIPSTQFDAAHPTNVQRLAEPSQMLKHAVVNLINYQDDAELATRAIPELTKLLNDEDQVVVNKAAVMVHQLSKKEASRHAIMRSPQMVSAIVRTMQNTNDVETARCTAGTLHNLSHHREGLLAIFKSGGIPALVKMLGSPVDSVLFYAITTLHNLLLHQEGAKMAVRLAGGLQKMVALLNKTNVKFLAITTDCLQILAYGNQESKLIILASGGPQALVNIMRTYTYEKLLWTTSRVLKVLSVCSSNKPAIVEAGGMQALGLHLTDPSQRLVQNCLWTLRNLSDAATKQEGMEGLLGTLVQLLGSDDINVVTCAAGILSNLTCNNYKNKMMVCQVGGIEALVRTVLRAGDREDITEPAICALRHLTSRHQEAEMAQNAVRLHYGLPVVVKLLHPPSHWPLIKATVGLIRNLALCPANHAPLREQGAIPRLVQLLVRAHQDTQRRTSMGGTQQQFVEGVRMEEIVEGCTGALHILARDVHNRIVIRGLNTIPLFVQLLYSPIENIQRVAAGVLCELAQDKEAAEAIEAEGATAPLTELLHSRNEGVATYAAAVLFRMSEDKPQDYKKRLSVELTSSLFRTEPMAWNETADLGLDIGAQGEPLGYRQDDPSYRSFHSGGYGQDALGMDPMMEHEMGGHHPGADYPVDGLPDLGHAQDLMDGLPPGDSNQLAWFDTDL

UniProt O00571, sequence (O00571 whole entry): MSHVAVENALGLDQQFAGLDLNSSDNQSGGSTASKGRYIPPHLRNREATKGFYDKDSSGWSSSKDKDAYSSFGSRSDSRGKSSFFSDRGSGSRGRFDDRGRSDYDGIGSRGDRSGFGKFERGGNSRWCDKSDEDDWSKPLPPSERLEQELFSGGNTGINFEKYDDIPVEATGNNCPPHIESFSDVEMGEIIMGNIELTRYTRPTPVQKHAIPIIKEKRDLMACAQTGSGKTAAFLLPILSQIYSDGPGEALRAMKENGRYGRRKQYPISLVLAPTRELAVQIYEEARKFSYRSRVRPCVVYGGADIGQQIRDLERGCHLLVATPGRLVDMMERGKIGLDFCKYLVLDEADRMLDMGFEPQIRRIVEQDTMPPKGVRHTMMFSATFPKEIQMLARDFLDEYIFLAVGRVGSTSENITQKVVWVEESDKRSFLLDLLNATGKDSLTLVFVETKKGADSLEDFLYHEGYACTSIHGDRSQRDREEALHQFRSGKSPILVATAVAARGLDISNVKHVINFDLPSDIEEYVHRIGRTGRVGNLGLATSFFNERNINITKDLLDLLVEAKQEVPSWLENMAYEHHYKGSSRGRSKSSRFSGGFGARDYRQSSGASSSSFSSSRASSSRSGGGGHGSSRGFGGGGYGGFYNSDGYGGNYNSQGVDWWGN
UniProt O60264, sequence (O60264 whole entry): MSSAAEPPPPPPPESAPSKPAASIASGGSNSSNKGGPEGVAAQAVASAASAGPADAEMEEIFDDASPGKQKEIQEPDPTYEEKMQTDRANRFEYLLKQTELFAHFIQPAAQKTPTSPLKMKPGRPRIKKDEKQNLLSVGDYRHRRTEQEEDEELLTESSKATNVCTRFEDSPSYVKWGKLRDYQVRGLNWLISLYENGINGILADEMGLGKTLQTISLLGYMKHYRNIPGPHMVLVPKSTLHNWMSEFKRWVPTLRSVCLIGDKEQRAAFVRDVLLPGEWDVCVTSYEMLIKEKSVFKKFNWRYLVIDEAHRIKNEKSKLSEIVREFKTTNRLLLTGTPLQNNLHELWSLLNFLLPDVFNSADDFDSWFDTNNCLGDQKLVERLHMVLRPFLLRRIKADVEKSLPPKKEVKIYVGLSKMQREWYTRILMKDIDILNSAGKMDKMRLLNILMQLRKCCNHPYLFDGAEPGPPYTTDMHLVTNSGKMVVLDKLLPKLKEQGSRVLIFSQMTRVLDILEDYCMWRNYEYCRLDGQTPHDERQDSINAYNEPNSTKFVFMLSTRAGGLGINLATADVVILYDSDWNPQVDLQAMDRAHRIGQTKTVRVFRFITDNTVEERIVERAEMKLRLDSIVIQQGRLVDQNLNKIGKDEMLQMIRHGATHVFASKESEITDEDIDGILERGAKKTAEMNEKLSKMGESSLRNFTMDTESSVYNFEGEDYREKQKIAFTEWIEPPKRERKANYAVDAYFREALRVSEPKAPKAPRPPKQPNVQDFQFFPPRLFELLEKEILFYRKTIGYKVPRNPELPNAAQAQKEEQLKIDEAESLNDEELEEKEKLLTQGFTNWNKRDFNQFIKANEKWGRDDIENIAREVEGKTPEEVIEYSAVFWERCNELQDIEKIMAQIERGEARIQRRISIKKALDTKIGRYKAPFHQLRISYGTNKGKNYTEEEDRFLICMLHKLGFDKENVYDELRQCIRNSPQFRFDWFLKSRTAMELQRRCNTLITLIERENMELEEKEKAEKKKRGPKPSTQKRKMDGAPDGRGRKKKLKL
UniProt P51532, sequence (P51532 whole entry): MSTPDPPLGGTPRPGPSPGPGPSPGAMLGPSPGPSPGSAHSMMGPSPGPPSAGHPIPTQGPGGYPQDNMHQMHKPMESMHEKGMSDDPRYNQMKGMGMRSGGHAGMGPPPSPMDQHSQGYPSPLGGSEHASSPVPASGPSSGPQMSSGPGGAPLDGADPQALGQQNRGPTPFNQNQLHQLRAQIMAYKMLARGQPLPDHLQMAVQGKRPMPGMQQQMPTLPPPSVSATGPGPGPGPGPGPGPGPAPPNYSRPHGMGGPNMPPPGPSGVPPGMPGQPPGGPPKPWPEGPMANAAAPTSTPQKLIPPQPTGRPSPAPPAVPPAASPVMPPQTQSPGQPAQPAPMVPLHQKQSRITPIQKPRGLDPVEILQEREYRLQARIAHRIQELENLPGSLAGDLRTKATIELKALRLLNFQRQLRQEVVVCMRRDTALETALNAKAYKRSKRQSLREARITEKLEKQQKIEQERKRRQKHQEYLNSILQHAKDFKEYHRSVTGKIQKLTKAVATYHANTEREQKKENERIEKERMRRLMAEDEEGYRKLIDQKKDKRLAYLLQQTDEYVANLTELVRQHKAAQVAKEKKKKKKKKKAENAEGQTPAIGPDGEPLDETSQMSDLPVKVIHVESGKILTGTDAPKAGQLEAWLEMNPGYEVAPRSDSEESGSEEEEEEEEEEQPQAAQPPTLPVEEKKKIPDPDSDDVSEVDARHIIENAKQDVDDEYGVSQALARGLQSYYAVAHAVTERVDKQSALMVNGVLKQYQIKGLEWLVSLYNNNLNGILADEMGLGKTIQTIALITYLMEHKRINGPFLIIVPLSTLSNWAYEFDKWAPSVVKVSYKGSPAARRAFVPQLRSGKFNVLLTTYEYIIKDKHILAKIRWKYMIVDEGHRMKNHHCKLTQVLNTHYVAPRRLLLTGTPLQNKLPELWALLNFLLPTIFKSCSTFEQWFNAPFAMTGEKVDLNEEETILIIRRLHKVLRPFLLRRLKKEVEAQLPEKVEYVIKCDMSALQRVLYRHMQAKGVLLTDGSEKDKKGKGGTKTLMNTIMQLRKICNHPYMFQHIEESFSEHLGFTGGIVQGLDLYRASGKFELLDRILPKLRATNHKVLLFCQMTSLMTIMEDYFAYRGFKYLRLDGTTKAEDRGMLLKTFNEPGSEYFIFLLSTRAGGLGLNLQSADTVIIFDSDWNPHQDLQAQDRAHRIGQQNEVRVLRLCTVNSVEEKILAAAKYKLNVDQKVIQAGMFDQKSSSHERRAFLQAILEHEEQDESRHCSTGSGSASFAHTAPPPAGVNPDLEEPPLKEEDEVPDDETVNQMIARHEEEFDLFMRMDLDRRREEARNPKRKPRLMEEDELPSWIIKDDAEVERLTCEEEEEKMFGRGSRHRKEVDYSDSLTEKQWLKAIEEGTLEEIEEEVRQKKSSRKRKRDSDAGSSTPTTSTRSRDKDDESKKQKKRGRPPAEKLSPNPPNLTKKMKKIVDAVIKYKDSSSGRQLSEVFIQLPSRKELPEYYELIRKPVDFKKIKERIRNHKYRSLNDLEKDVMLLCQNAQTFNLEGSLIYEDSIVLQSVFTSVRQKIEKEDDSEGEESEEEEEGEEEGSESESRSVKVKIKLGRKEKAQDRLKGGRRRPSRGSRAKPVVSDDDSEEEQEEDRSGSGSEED

Row | Substance | other: SaintScore (TRRAP; WNT-OFF (10 nM LGK974)) | other: SaintScore (TRRAP; WNT-ON (10 µM CHIR99021)) | other: SaintScore (DDX3X; WNT-OFF (10 nM LGK974)) | other: SaintScore (DDX3X; WNT-ON (10 µM CHIR99021)) | other: SaintScore (SMARCA5; WNT-OFF (10 nM LGK974)) | other: SaintScore (SMARCA5; WNT-ON (10 µM CHIR99021)) | other: SaintScore (SMARCA4; WNT-OFF (10 nM LGK974)) | other: SaintScore (SMARCA4; WNT-ON (10 µM CHIR99021)) | other: SaintScore (β-catenin; WNT-ON (10 µM CHIR99021)) | other: SaintScore (β-catenin; WNT-OFF (10 nM LGK974))
1 | TBX3-WT-BirA (from UniProt O15119) NPF del | 0 | 0.67 | 0.32 | 0.71 | 0 | 0.67 | 0 | 0.67 | 0.67 | 
2 | TBX3-WT-BirA (from UniProt O15119) RRM del | 1 | 0.67 | 1 | 0.65 | 0.67 | 0.67 | 1 | 0.93 | 0.67 | 0.33
